Reference: the supplement of paper PMC9170038

Tested on: K4 kissing-loop RNA reporter
Test: apparent KD of K4 kissing-loop reporter; higher = weaker reporter binding
Conditions: Eterna round: R107
Experimental: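 RNA-MaP round R107: designed RNA switches with theophylline, tryptophan, arginine or FMN aptamers are transcribed on-chip within common flanks. They are titrated with a labelled K4 kissing-loop RNA reporter in RNA-MaP buffer (100 mM Tris pH 7.5, 80 mM KCl, 4 mM MgCl2), without ligand or with the indicated ligand. Median apparent KD per design.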

[1] = input ligand: theophylline 20 uM
[2] = input ligand: tryptophan 2.4 mM
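Also: bound reporter read as fluorescence of individual clusters on recovered sequencing chips by microscopy, with normalized cluster intensities fitted with a binding model.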

Sequence	apparent KD of K4 kissing-loop reporter (input ligand: FMN 200 uM)	apparent KD of K4 kissing-loop reporter (input ligand: arginine 13.2 mM)	apparent KD of K4 kissing-loop reporter (input ligand: none)	apparent KD of K4 kissing-loop reporter [1]	apparent KD of K4 kissing-loop reporter [2]
CUCCUUGGCUAAGGAUAUCGUAGUGAUGUUAUGGUCUUUGCUAAGACUUCUGAUAUUGAAUUCCGACGAGAAGGUAGAAGGACGG [theeternabot_exclusion_KL_FMN_B_18]	817 nM	690 nM	835 nM	745 nM	626 nM
CUCGAGUGAUGUUCGAUUAUUUAUACAGAUACCAGUGAAUUUUAACACCCUUGGCAGCUGGUAGUAUCGUUGUAAUUUACACAAG [JR_ExcTheophyA_Sub004]	99.8 nM	163 nM	116 nM	168 nM	87.9 nM
CUCGUGGGUUUGAGAGGGCUUGUGGGAAGUGAGGAUAUUUAGGGAGAAAGAAGGCACUAUAAAAUAUAGUGAUGUUAUAUAAGGG [SSFMNA.M]	494 nM	138 nM	188 nM	751 nM	347 nM
CUGACGAUGACACGGUGGCCGCUGGUCGUGCGAGGACCGGUACGGCCGCCACUCGCAUGAGUGAUGUUCAUGUGUCGUCGUCGUC [#08 K4 Tryptophan A Exclusion]	133 nM	101 nM	111 nM	112 nM	118 nM
CUGACGUGCGGUAGGUUCAAGUGCUGGGAAGGAGCGCAGAUGACUGCAGGUAGGUCGCCCAGUGAUGUUGGGCUUUCCACCUACG [Quinbe]	186 nM	180 nM	193 nM	214 nM	186 nM
CUGACUAAAUAGUCAGUGAUGUUGACUGGACGAGGACCGGUACGGCCGCCACUCGAGAGUGGUGUAAUAUAUGUCAUAUAGUCAA [Tryp A SS t3]	517 nM	258 nM	436 nM	423 nM	233 nM
CUGUCAUGGGAUGGGCCAGUGAUGUUGGGCCGAGGACCGGUACGGCCGCCACUCGUAGCACAGUGCGCGCUAGCAUUGUACGUCA [theeternabot_exclusion_KL_Trp_A_35]	1260 nM	629 nM	977 nM	808 nM	456 nM
CUUAGGUCAGUUACCCGAGUGAUGUUCUGUCGAGGACCGGUACGGCCGCCACUCGCUCAUUAUCGGUCUGACAAAGAGCUGGCUU [theeternabot_exclusion_KL_Trp_A_9]	393 nM	56.4 nM	208 nM	136 nM	106 nM
CUUCGAUUAACAGAUACCAGUCACUUGGGAGCCACACACAAGUGAGUGAUGUUCACUUGUGACCCUUGGCAGCUGUUAGUCGAAG [#04 K4 Theophylline B Exclusion]	102 nM	86.5 nM	97.2 nM	127 nM	103 nM
CUUGAUCGAGGAAGGAGCGGGCCGUCAUUGAGCGCAGUGAUGUUGCGUUCGACUAGUCGAGCCCAGGUAGGUCGCCUGGAGUAAG [Lazalaa]	84.9 nM	76.1 nM	98.2 nM	78.2 nM	90.8 nM
CUUGAUGUAGCGGCCGCCACUCUAGAUCCGCAUCGGAUGAGGUACUUGAAGUGAUGUUUUGAGGUGAGGACCGGGCUCUAAAGAA [theeternabot_sameState_KL_Trp_B_16]	750 nM	455 nM	564 nM	452 nM	420 nM
CUUGUACAUGCCGAGGUAGGUGCGGGUUAGCGAGGACCGGUACGGCCGCCACUCGCCAAGUGAUGUUUGGUCCUUUGGAUCGGCA	1220 nM	453 nM	366 nM	690 nM	183 nM
GAAAGAAAGUAUGAUACCAGACACCCGAGUGAUGUUCGGAGCAGAGUGAUGUUCUUUUAAGUCCCUUGGCAGCAUAAAAGAAAAG [whbob_SS_Theo_B_sa83]	192 nM	219 nM	238 nM	294 nM	166 nM
GAAUGAUAGUAAGGAUAUAGAUAAUCCUUAUAUAUAUCGAGUGAUGUUCGAUGUGGCAAGAUACAUCUAGAAGGUACUGUAAGGU [Same State FMN B GF 16]	309 nM	321 nM	361 nM	361 nM	240 nM
GACAGCCGGUCGGCCGCCACUUGGAGUGAUGUUCCGCGCGGCGGGCGCCGGAGGGCGUUAAGCCCAAGGACCGGGACCGGUAACG [Celeso]	114 nM	103 nM	92.9 nM	114 nM	104 nM
GACGUGCGAGAGACCGCUCUACCUUGAGAUCGAGGACCGGUACGGCCGCCACUCGGUGUUUAACGUCGAUCCCAGUGAUGUUGGA [theeternabot_sameState_KL_Trp_A_21]	521 nM	230 nM	429 nM	450 nM	234 nM
GACUCUCUCGUCAGGAAGACGCACUCAGCCAAGGAUAUUAUGUUUUUAAGAAGGUGGACUUAUGCCAGUGAUGUUGGCAGAUACG [theeternabot_sameState_KL_FMN_A_29]	50.6 nM	86.1 nM	67.6 nM	99.9 nM	57.1 nM
GAGGCCAGACUGAGUGAUGUUUAGUAUGAUACCAGUAUCGAAGGAUACCCUUGGCAGCAUGCCACGGCCUCGGCGGGAAACCGCC	746 nM	663 nM	1000 nM	714 nM	876 nM
GAGGUAUGCGCAGUGAUGUUGCGACGAGAUACCAGUCGUUCUGUCGACCCUUGGCAGCUCCCACCAGACGUACGAGUUUGUGUUG [theeternabot_sameState_KL_Theo_A_10]	114 nM	111 nM	113 nM	113 nM	99.5 nM
GAGUCCUUUGAAGGAUAUAGACGUCCCGAUCACUCAGUUGGCGAGCGAGUGAUGUUCGUUCCUAUACUAGAAGGUCAAAGCCUCC [theeternabot_sameState_KL_FMN_B_32]	225 nM	193 nM	211 nM	204 nM	205 nM
GAUCAUAGCACGGCCGCCACUGAUAUGCCGUGCUAUACGAGUGAUGUUCGUAAUUAUACGGGUAUCAGGACCGGGUGCAACGGUA [Tryp B SS t2]	149 nM	89.3 nM	113 nM	167 nM	112 nM
GAUCUGAACGAAAGUUCGGAUCAGUCCGAUACCAGUAUGGAUUCAUACCCUUGGCAGCGGUUAUCUGCUAUGGAGUGAUGUUCCA [Theophylline A K4 11]	502 nM	344 nM	483 nM	321 nM	348 nM

Sequence	apparent KD of K4 kissing-loop reporter (input ligand: FMN 200 uM)	apparent KD of K4 kissing-loop reporter (input ligand: arginine 13.2 mM)	apparent KD of K4 kissing-loop reporter (input ligand: none)	apparent KD of K4 kissing-loop reporter [1]	apparent KD of K4 kissing-loop reporter [2]
GAUGCCAUGAUCCUCCUGGUAUCGGGAGAUACCAGCGUGCUGACACGCCCUUGGCAGCUCCAUUCGAGAGUGAUGUUGUCGAGAA [KL-SSTheo-A8 #analogue]	453 nM	114 nM	330 nM	237 nM	287 nM
GAUUGUGAUGGAAACAUCGCAAUCUCUGAAGGAGCGCGUGAAAACGCAGGUAGGUCGCAGGACGACAAAGACAGUGAUGUUGUCA [Ex Arginine A K4 1]	335 nM	319 nM	311 nM	369 nM	380 nM
GAUUUAGAGGCGGCCGCCACUAGUGAUGUUAGUGAUGUUUGAUACUGAAUAUAUCUGCGUGUAGAUAGGACCGGGCCAGAUGGAG [eyerullin]	210 nM	171 nM	186 nM	184 nM	180 nM
GAUUUAGAGGCGGCCGCCACUAGUGAUGUUAGUGAUGUUUGAUACUGAAUAUAUCUGCGUUUAGAUAGGACCGGGCCAGAUGGUG [ddcmullin]	261 nM	159 nM	193 nM	215 nM	197 nM
GCAGGCGUAAAAGGAUAUCAGGCUCUCUAGACACGAGUGAUGUUUGUGUAGGUAACGUAAUAGGCAUGAGAAGGUUUCACUUAAA [theeternabot_sameState_KL_FMN_B_49]	608 nM	430 nM	547 nM	524 nM	416 nM
GCAGUGAUGUUGCACGAGUAGGCUAGAGUACGAGGACCGGUACGGCCGCCACUCGUACGGAAGUCGCUAAUUUAUGGAAUGGUGA [#05 K4 Tryptophan A Same State]	713 nM	473 nM	548 nM	455 nM	435 nM
GCAUGGAUCGCAGGAUAUAGAUCCGUGAGUGAAUUCUUGCCAGUGAGGAGUGAUGUUCCUCAUGGGCUAGAAGGGCGAUCCAUGC	140 nM	80.8 nM	89.4 nM	85.9 nM	83.5 nM
GCCAGCAGUACUGAUACCAGACUGCAUGUAGUGAUGUUGCAUAAGGGCAUAGAUGUCUCAGUCCCUUGGCAGCGGUACUGUUGCA [#10 K4 Theophylline B Same State]	335 nM	252 nM	330 nM	199 nM	241 nM
GCCAGUGCACGAAGGAGCGCCGUGACAGGUUACUGCCUUGGGCAGUGAUGUUGCUCAAUCUGGCAGGUAGGUCGCGUGCACUGGC	169 nM	147 nM	170 nM	175 nM	177 nM
GCCGCCGCGGCAGGAUAUAGACAUUGAGUGAUGUUCGGUGCUUAUCCAAAGUGCUGUUUCGGCCAACUAGAAGGGCCGCGGCGGC	204 nM	94 nM	119 nM	103 nM	119 nM
GCCGUACGCAUGGAUACCAGAGAUGUUAAUCUCGAUGCCAGUGAUGUUGGCUUUAGCAUACUCCCUUGGCAGCCAUGCGUACGGC	312 nM	241 nM	292 nM	186 nM	267 nM
GCCGUACGCAUGGAUACCAGCAAUAUGCUACGUUGUAGUAGUAUAACCAGUGAUGUUGGAUGCCCUUGGCAGCCAUGCGUACGGC	736 nM	673 nM	897 nM	349 nM	855 nM
GCCGUACGCAUGGAUACCAGCCGACAUGAUAUUUAGCUGGUGUCGUAGUGAUGUUACGAAGGCCCUUGGCAGCCAUGCGUACGGC	83.7 nM	72.7 nM	78.2 nM	79.1 nM	78.7 nM
GCCGUACGCAUGGAUACCAGUUGCGAAGUGAUGUUUCGGGCGAUCAAAGGAUCGCCCAACAACCCUUGGCAGCCAUGCGUACGGC	216 nM	42.5 nM	119 nM	108 nM	133 nM
GCCGUAGAUGGAAGGAGCGUGGUUAAUGUAAGUGAUGUUUACGAGGUCAACAAUUGACCGCCACAGGUAGGUCGCCAUCUACGGC	60.4 nM	57.4 nM	57.2 nM	53.1 nM	56.4 nM
GCCGUAGAUUGAAGGAGCGGGCCGUAGUGAUGUUACGCCAAUUUAUCUUUUCUUGAUGUGGCCCAGGUAGGUCGCAAUCUACGGC	241 nM	204 nM	216 nM	207 nM	193 nM
GCCGUAGAUUGAAGGAGCGGUAUGGGCGUUGGCUGAGUGAUGUUCAGGGAAAGUGGCUUCUACCAGGUAGGUCGCAAUCUACGGC	164 nM	129 nM	157 nM	170 nM	137 nM
GCCUAGGCUCGAAAGAGCCUAGGCUUGUCUCAGGAUAUCUGGAAACAGAGAAGGGAGCUACUAGUGAUGUUAGGAAUUCCCUAAG	149 nM	122 nM	112 nM	92.3 nM	98 nM
GCCUAGGCUCGAAAGAGCCUAGGCUUUACUCAGGAUAUCUGGAAACAGAGAAGGGAGCUACUAGUGAUGUUAGGAAUUCCCUAAG	45.9 nM	80.3 nM	133 nM	141 nM	87.8 nM
GCCUUUUUUCGAGCUACAGCUCGAUUUGGUCGAGGACCGGUACGGCCGCCACUCGAAUGAUAGUGAUGUUAUCAUUAUGGCAUAA [JR_ExcTryptoA_Sub023]	196 nM	166 nM	176 nM	186 nM	152 nM
GCGCGUCAUGUCAGCGGUGACACUGUCGAUACCAGCGCCGGAAGGCGCCCUUGGCAGCGACGUGCUGGAGUGAUGUUCCAGCGUC [#2 Exclusion - Theophylline A Attempt #21 (HarryS)]	177 nM	107 nM	140 nM	130 nM	134 nM
GCGCGUCAUGUCAGCGGUGACUAUGUCGAUACCAGCAGGGAAACCUGCCCUUGGCAGCGACGCGCUGGAGUGAUGUUCCGACGGC [#2 Exclusion - Theophylline A Attempt #8 (HarryS)]	165 nM	153 nM	154 nM	173 nM	145 nM
